Starred links: 1 amine or outer side, 2 acyl side, 3 side chain; linkers in the order of their positions; H or OH if unused. Positions of bridges follow the written chain, without caps; N, C: chain ends. Non-standard residues stand in square brackets, D forms with d. Residues, ends and D or L forms follow the SMILES beside them. *: point of attachment. X1 = COc1cc2cc(c1Cl)N(C)C(=O)C[C@H](OC(=O)[C@H](C)N(C)C(=O)CCSSC(C)(C)CCC(=O)*)[C@]1(C)O[C@H]1[C@H](C)[C@@H]1C[C@@](O)(NC(=O)O1)[C@H](OC)/C=C/C=C(\C)C2; 1Nal = N[C@@H](Cc1cccc2ccccc12)C(=O)O; TBMB = c1c(C[*:1])cc(C[*:3])cc1C[*:2]; Tle = CC(C)(C)[C@H](N)C(=O)O; βAla = NCCC(=O)O; Sar = CNCC(=O)O
What was measured:
[1] = system: murine, dog, cynomolgus and human MT1-MMP; test: Species cross-reactivity of peptide ligands; format: binding
[2] = Plasma stability profiling, Method #2 (quantitative LC-MS), mouse plasma; format: in vitro ADME; conditions: incubation up to 24 hrs in plasma, 4 μM BDC, read-out: t1/2 (hrs) (mouse plasma) (converted)
Method: (§1) To obtain plasma stability of bicyclic peptides quantitatively, peptide stock solutions (160 μM in DMSO) were mixed with plasma (human, rat or mouse), such that final concentrations were 4 μM, and incubated at 37° C. 40 μL samples were taken periodically up to 24 hrs and frozen at −80° C. Prior to LC-MS analysis, samples were defrosted, and mixed with 3 volumes (here, 120 μL) of 1 part water, 3 parts acetonitrile and 3 parts methanol. The milky suspensions were centrifuged for 40 min at 14000 rpm in a cooled centrifuge, and peptide-containing supernatants were quantitated for doubly/triply charged species and MS/MS fragments thereof using a Waters Xevo TQ-D instrument, while using a plasma extracted standard curve of the same peptides as a reference. The half-life of degradation in plasma was used to assess the comparative stability of the molecules.

EBC-1 xenograft tumours = test: Efficacy in EBC-1 xenograft mice; format: in vivo, Balb/c nude mice
Method: (§2) Efficacy of BT17BDC-27 and BT17BDC-28 in EBC-1 Xenograft Mice.
(§3) Balb/c nude mice bearing subcutaneous EBC-1 xenograft tumours were treated with BDCs or vehicle. BDCs were dosed 3 times weekly for 2 weeks, dosing initiated when tumours measured approx. 150-200 mm^3. Mice were monitored, and measurements of tumour volume and body weight recorded 3 times a week.
Both BDCs were tested for their efficacies in in vivo mouse xenograft models, using the human lung squamous cell carcinoma line EBC-1.

[3] = cited from earlier work; for reduction in sensitivity to a reducing agent such as dithiothreitol: in the antibody drug conjugate context; for Relative Stability to DTT (ADC): values relate to antibody drug conjugates containing the disulphide linker
[4] = Body weight during treatment of EBC-1 xenograft mice; format: in vivo, Balb/c nude mice; conditions: 10 mg/kg
Method: FIG. 2: Body weight during treatment of EBC-1 xenograft mice with BT17BDC-27, which is indicative of drug-associated toxicology and overall animal health.
FIG. 4: Body weight during treatment of EBC-1 xenograft mice with BT17BDC-28, which is indicative of drug-associated toxicology and overall animal health.
as §2, §3

[5] = Relative stability to DTT of Bicycle Drug Conjugates by quantitative LC-MS; format: physicochemical; conditions: compared to unhindered disulphide BDCs
Method: Both BDC conjugate structures were assessed for several in vitro parameters such as retention of potency to the human MT1-MMP hemopexin domain, stability in mouse, rat and human plasma, and stability to reducing agents such as dithiothreitol.

[6] = Plasma stability profiling, Method #2 (quantitative LC-MS), human plasma; format: in vitro ADME; conditions: incubation up to 24 hrs in plasma, 4 μM BDC, read-out: t1/2 (hrs) (human plasma) (converted)
Method: as §1

[7] = Plasma stability profiling, Method #2 (quantitative LC-MS), rat plasma; format: in vitro ADME; conditions: incubation up to 24 hrs in plasma, 4 μM BDC, read-out: t1/2 (hrs) (rat plasma) (converted)
Method: as §1

[8] = system: MMP-1, MMP-2, MMP-15 and MMP-16; test: Selectivity for MT1-MMP over other MMPs; format: binding
[9] = 10 mg/kg, dosed 3 times weekly for 2 weeks

| Molecule | cross-reactivity with murine, dog, cynomolgus and human MT1-MMP [1] | half-life at 4 μM [2] [h] | reduction in sensitivity to a reducing agent such as dithiothreitol [3] [fold] | Relative Stability to DTT (ADC) [3] | body weight [4] | Relative Stability to DTT (BDC) [5] | half-life at 4 μM [6] [h] | half-life at 4 μM [7] [h] | other results |
| --- | --- | --- | --- | --- | --- | --- | --- | --- | --- |
| C[C@H](NC(=O)CN(C)C(=O)CN(C)C(=O)CN(C)C(=O)CN(C)C(=O)CN(C)C(=O)CN(C)C(=O)CN(C)C(=O)CN(C)C(=O)CN(C)C(=O)CN(C)C(=O)CCN)C(=O)N[C@H]1CSCc2cc3cc(c2)CSC[C@H](NC(=O)[C@@H](C)NC(=O)[C@H](Cc2cccc4ccccc24)NC(=O)[C@H](CCC(=O)O)NC(=O)[C@H](CC(N)=O)NC(=O)[C@@H](C)NC1=O)C(=O)N[C@@H](CCC(=O)O)C(=O)N[C@@H](CC(=O)O)C(=O)N[C@@H](Cc1ccccc1)C(=O)N[C@@H](Cc1ccc(O)cc1)C(=O)N[C@@H](CC(=O)O)C(=O)N[C@@H](C(C)(C)C)C(=O)N[C@H](C(N)=O)CSC3 [17-69-07-N241, bAla-Sar10-A-(17-69-07) D-Ala1 1Nal4 D-Ala5 tBuGly11] (H-[βAla][Sar][Sar][Sar][Sar][Sar][Sar][Sar][Sar][Sar][Sar]AC[dA]NE[1Nal][dA]CEDFYD[Tle]C-NH2; linker 13-19-26 via TBMB) | fully cross reactive | – | – | – | – | – | – | – | – |
| C[C@H](N)C(=O)N[C@H]1CSCc2cc3cc(c2)CSC[C@H](NC(=O)[C@@H](C)NC(=O)[C@H](Cc2cccc4ccccc24)NC(=O)[C@H](CCC(=O)O)NC(=O)[C@H](CC(N)=O)NC(=O)[C@@H](C)NC1=O)C(=O)N[C@@H](CCC(=O)O)C(=O)N[C@@H](CC(=O)O)C(=O)N[C@@H](Cc1ccccc1)C(=O)N[C@@H](Cc1ccc(O)cc1)C(=O)N[C@@H](CC(=O)O)C(=O)N[C@@H](C(C)(C)C)C(=O)N[C@H](C(N)=O)CSC3 [17-69-07-N268, A-(17-69-07) D-Ala1 1Nal4 D-Ala5 tBuGly11] (H-AC[dA]NE[1Nal][dA]CEDFYD[Tle]C-NH2; linker 2-8-15 via TBMB) | fully cross reactive | – | – | – | – | – | – | – | – |
| COc1cc2cc(c1Cl)N(C)C(=O)C[C@H](OC(=O)[C@H](C)N(C)C(=O)CCSSC(C)(C)CCC(=O)N[C@@H](C)C(=O)N[C@H]1CSCc3cc4cc(c3)CSC[C@H](NC(=O)[C@@H](C)NC(=O)[C@H](Cc3cccc5ccccc35)NC(=O)[C@H](CCC(=O)O)NC(=O)[C@H](CC(N)=O)NC(=O)[C@@H](C)NC1=O)C(=O)N[C@@H](CCC(=O)O)C(=O)N[C@@H](CC(=O)O)C(=O)N[C@@H](Cc1ccccc1)C(=O)N[C@@H](Cc1ccc(O)cc1)C(=O)N[C@@H](CC(=O)O)C(=O)N[C@@H](C(C)(C)C)C(=O)N[C@H](C(N)=O)CSC4)[C@]1(C)O[C@H]1[C@H](C)[C@@H]1C[C@@](O)(NC(=O)O1)[C@H](OC)/C=C/C=C(\C)C2 [BT17BDC-27] (X1-AC[dA]NE[1Nal][dA]CEDFYD[Tle]C-NH2; linker 2-8-15 via TBMB) | – | 23 | 14 | 14 | slight reduction in body weight | 32 | 36 | 9 | cleared tumours within (EBC-1 xenograft tumours; [9]): ≤ 14 days; efficacy and tolerability (EBC-1 xenograft tumours; doses equal or lower than 5 mg/kg): appreciable efficacy and tolerability |
| COc1cc2cc(c1Cl)N(C)C(=O)C[C@H](OC(=O)[C@H](C)N(C)C(=O)CCSSC(C)(C)CCC(=O)NCCC(=O)N(C)CC(=O)N(C)CC(=O)N(C)CC(=O)N(C)CC(=O)N(C)CC(=O)N(C)CC(=O)N(C)CC(=O)N(C)CC(=O)N(C)CC(=O)N(C)CC(=O)N[C@@H](C)C(=O)N[C@H]1CSCc3cc4cc(c3)CSC[C@H](NC(=O)[C@@H](C)NC(=O)[C@H](Cc3cccc5ccccc35)NC(=O)[C@H](CCC(=O)O)NC(=O)[C@H](CC(N)=O)NC(=O)[C@@H](C)NC1=O)C(=O)N[C@@H](CCC(=O)O)C(=O)N[C@@H](CC(=O)O)C(=O)N[C@@H](Cc1ccccc1)C(=O)N[C@@H](Cc1ccc(O)cc1)C(=O)N[C@@H](CC(=O)O)C(=O)N[C@@H](C(C)(C)C)C(=O)N[C@H](C(N)=O)CSC4)[C@]1(C)O[C@H]1[C@H](C)[C@@H]1C[C@@](O)(NC(=O)O1)[C@H](OC)/C=C/C=C(\C)C2 [BT17BDC-28] ({X1-βAla}-[Sar][Sar][Sar][Sar][Sar][Sar][Sar][Sar][Sar][Sar]AC[dA]NE[1Nal][dA]CEDFYD[Tle]C-NH2; linker 12-18-25 via TBMB) | – | 19 | 14 | 14 | no weight loss was observed | 28 | 29 | 13 | effect on tumour growth (EBC-1 xenograft tumours; [9]): tumour growth stasis but not active regression |
| -Ci-Y-N-E-F-G-Cii-E-D-F-Y-D-I-Ciii- [17-69-07] | – | – | – | – | – | – | – | – | selectivity for MT1-MMP (no cross-reaction with MMP-1, MMP-2, MMP-15 and MMP-16) [8]: uniquely selective for MT1-MMP |
